Source: patent publication US8063008B2, “Enzymatic production of peracids using perhydrolytic enzymes” (E. I. du Pont de Nemours and Company, priority 2005, dated 2011)

Experiments:
Type in all cases: biochemical
[1] = Protease-catalyzed perhydrolysis of triacetin at pH 6.5 (Example 8); details: pH 6.5, 500 mM H2O2, 1 mg protease
Experimental: The analytical procedure described by U. Karst et al. (Anal. Chem., 69 (17):3623-3627 (1997)) was employed, as described herein, for analysis of product mixtures containing peracid and hydrogen peroxide. Briefly, the concentration of peracetic acid (PAA) in analyzed samples ranged from 0.025 mM-10 mM, and the concentration of H2O2 ranged from 0.075 mM-3 mM. Reaction mixtures containing peracid and/or hydrogen peroxide were, if necessary prior to analysis, diluted to produce a concentration of peracid or peroxide in these ranges. […] At the end of 30 minutes, 0.100 mL of 10 mM N,N-diethyl-m-toluamide (DEET, HPLC external standard) was added and the resulting solution analyzed by HPLC: Supelco Discovery C8 10-cm column with pre-column, 10-μL injection, UV detection at 225 nm, solvent A: acetonitrile, solvent B: deionized water, 1 mL/min gradient as follows: […]
(§1) Into a 4-mL glass vial with stir bar was added 1 mg protease (Table 6) in 0.050 mL of 50 mM sodium phosphate buffer (pH 6.5), 0.900 mL of an aqueous mixture containing triacetin (278 mM) in 50 mM phosphate buffer (pH 6.5), and 0.052 mL 30% hydrogen peroxide (500 mM final concentration). […] A portion of the filtered reaction samples was diluted 1:10 with dd water and analyzed for hydrogen peroxide, and the remaining portion of the sample was directly analyzed for peracid using the HPLC assay method (Table 9).

[2] = Protease-catalyzed perhydrolysis of acetamide at pH 4.0 (Example 6); details: pH 4.0, 500 mM H2O2, 1 mg protease
Experimental: (§2) Into a 4-mL glass vial with stir bar was added 1 mg protease (Table 6) in 0.050 mL of 50 mM sodium acetate/acetic acid buffer (pH 4.0), 0.900 mL of an aqueous mixture containing either a) acetamide (278 mM) in 50 mM sodium acetate/acetic acid buffer (pH 4.0) or b) diacetamide (278 mM) in 50 mM sodium acetate/acetic acid buffer (pH 4.0), and 0.052 mL 30% hydrogen peroxide (500 mM final concentration). […] A portion of the filtered reaction samples was diluted 1:10 with dd water and analyzed for hydrogen peroxide, and the remaining portion of the sample was directly analyzed for peracid using the HPLC assay method (Table 7).

[3] = Protease-catalyzed perhydrolysis of diacetamide at pH 6.5 (Example 9); details: pH 6.5, 500 mM H2O2, 1 mg protease
Experimental: as §2, with “potassium phosphate” for “sodium acetate/acetic acid”, “6.5),” for “4.0),”, “6.5)” for “4.0)”, “10).” for “7).”

[4] = Protease-catalyzed perhydrolysis of acetamide at pH 6.5 (Example 9); details: pH 6.5, 500 mM H2O2, 1 mg protease
Experimental: as §2, with “potassium phosphate” for “sodium acetate/acetic acid”, “6.5),” for “4.0),”, “6.5)” for “4.0)”, “10).” for “7).”

[5] = Protease-catalyzed perhydrolysis of triacetin at pH 4.0 (Example 7); details: pH 4.0, 500 mM H2O2, 1 mg protease
Experimental: as §1, with “sodium acetate/acetic acid” for “sodium phosphate”, “(pH 4.0),” for “(pH 6.5),”, “mM sodium acetate/acetic acid” for “mM phosphate”, “(Table 8).” for “(Table 9).”

[6] = Protease-catalyzed perhydrolysis of diacetamide at pH 4.0 (Example 6); details: pH 4.0, 500 mM H2O2, 1 mg protease
Experimental: as §2

[7] = Enzymatic perhydrolysis of triacetin using a combination of lipase and proteases (Proteinase K, Pronase) at pH 4.0 and 6.5 (Example 10); details: H2O2 500 mM, 1 mg lipase, 0.3 mg Proteinase K, 1.2 mg Pronase
Experimental: Reaction mixtures were prepared containing 1 mg lipase (ICR 101, ICR-110, or ICR-117, BioCatalytics, Pasadena, Calif.), 0.3 mg Proteinase K (T. album), and 1.2 mg of Pronase in 1.0 mL of 50 mM buffer (either sodium acetate/acetic acid buffer at pH 4.0, or potassium phosphate buffer at pH 6.5), additionally containing triacetin (250 mM) and hydrogen peroxide (500 mM). […] A portion of the filtered reaction samples was diluted 1:10 with dd water and analyzed for hydrogen peroxide, and the remaining portion of the sample was directly analyzed for peracid using the HPLC assay method (Table 11). Reactions were also run with lipase alone or protease(s) alone for comparison of peracetic acid concentrations produced without the combination of lipase and protease(s).

[8] = Enzymatic perhydrolysis of triacetin using a combination of lipase and Alcalase at pH 4.0 and 6.5 (Example 22); details: H2O2 500 mM, 1 mg lipase, 20 μL Alcalase
Experimental: Reaction mixtures were prepared containing 1 mg lipase (A “Amano” 12 (Amano), Validase AN (Valley Research), or ICR-110 (BioCatalytics)), and 20 μL Alcalase® (Novozymes) in 1.0 mL of 50 mM buffer (either sodium acetate/acetic acid buffer at pH 4.0, or potassium phosphate buffer at pH 6.5), additionally containing triacetin (250 mM) and hydrogen peroxide (500 mM). […] A portion of the filtered reaction samples was diluted 1:10 with dd water and analyzed for hydrogen peroxide, and the remaining portion of the sample was directly analyzed for peracid using the HPLC assay method (Table 27). Reactions were also run with lipase alone or Alcalase® alone for comparison of peracetic acid concentrations produced without the combination of lipase and Alcalase®.

[9] = Enzymatic perhydrolysis of a mixture of diacetin (250 mM), triacetin (88 mM) and monoacetin (192 mM) using lipase and Alcalase at pH 4.0 and 6.5 (Example 23); details: 1 mg lipase, 20 μL Alcalase
Experimental: Reaction mixtures were prepared containing 1 mg lipase (A “Amano” 12 (Amano), Validase AN (Valley Research), or ICR-110 (BioCatalytics)), and 20 μL Alcalase® (Novozymes) in 1.0 mL of 50 mM buffer (either sodium acetate/acetic acid buffer at pH 4.0, or potassium phosphate buffer at pH 6.5), additionally containing a mixture of diacetin (250 mM), triacetin (88 mM) and monoacetin (192 mM) and hydrogen peroxide (500 mM). […] A portion of the filtered reaction samples was diluted 1:10 with dd water and analyzed for hydrogen peroxide, and the remaining portion of the sample was directly analyzed for peracid using the HPLC assay method (Table 28). Reactions were also run with lipase alone or Alcalase® alone for comparison of peracetic acid concentrations produced without the combination of lipase and Alcalase®.

B1: Papain: Papain, papaya latex, Sigma P3125 (protein, UniProt P00784 134-345, looked up)
Papain: IPEYVDWRQKGAVTPVKNQGSCGSCWAFSAVVTIEGIIKIRTGNLNEYSEQELLDCDRRSYGCNGGYPWSALQLVAQYGIHYRNTYPYEGVQRYCRSREKGPYAAKTDGVRQVQPYNEGALLYSIANQPVSVVLEAAGKDFQLYRGGIFVGPCGNKVDHAVAAVGYGPNYILIKNSWGTGWGENGYIRIKRGTGNSYGVCGLYTSSFYPVKN
- triacetin (250 mM) peracetic acid (ppm), 5 min ([1]; 5 min): 203 ppm
- triacetin (250 mM) peracetic acid (ppm), 30 min ([1]; 30 min): 142 ppm
- acetamide (250 mM) peracetic acid (ppm), 5 min [2]: 81 ppm
- acetamide (250 mM) peracetic acid (ppm), 30 min [2]: 105 ppm
- diacetamide (250 mM) peracetic acid (ppm), 5 min [3]: 342 ppm
- diacetamide (250 mM) peracetic acid (ppm), 30 min [3]: 187 ppm
- acetamide (250 mM) peracetic acid (ppm), 5 min [4]: 199 ppm
- acetamide (250 mM) peracetic acid (ppm), 30 min [4]: 157 ppm
- triacetin (250 mM) peracetic acid (ppm), 5 min ([5]; 5 min): 85 ppm
- triacetin (250 mM) peracetic acid (ppm), 30 min ([5]; 30 min): 48 ppm
- diacetamide (250 mM) peracetic acid (ppm), 5 min ([6]; 5 min): 135 ppm
- diacetamide (250 mM) peracetic acid (ppm), 30 min ([6]; 30 min): 172 ppm

B2: Proteinase K, T. album: Proteinase K, T. album, Novagen 70663; a fungal subtilisin from Tritirachium album (protein, UniProt P06873 106-384, looked up)
Proteinase K: AAQTNAPWGLARISSTSPGTSTYYYDESAGQGSCVYVIDTGIEASHPEFEGRAQMVKTYYYSSRDGNGHGTHCAGTVGSRTYGVAKKTQLFGVKVLDDNGSGQYSTIIAGMDFVASDKNNRNCPKGVVASLSLGGGYSSSVNSAAARLQSSGVMVAVAAGNNNADARNYSPASEPSVCTVGASDRYDRRSSFSNYGSVLDIFGPGTSILSTWIGGSTRSISGTSMATPHVAGLAAYLMTLGKTTAASACRYIADTANKGDLSNIPFGTVNLLAYNNYQA
- acetamide (250 mM) peracetic acid (ppm), 5 min [2]: 34 ppm
- acetamide (250 mM) peracetic acid (ppm), 30 min [2]: 49 ppm
- diacetamide (250 mM) peracetic acid (ppm), 5 min [3]: 104 ppm
- diacetamide (250 mM) peracetic acid (ppm), 30 min [3]: 100 ppm
- acetamide (250 mM) peracetic acid (ppm), 5 min [4]: 270 ppm
- acetamide (250 mM) peracetic acid (ppm), 30 min [4]: 214 ppm
- peracetic acid (ppm), 5 min ([7]; pH 4.0, triacetin 250 mM): 24 ppm
- peracetic acid (ppm), 30 min ([7]; pH 4.0, triacetin 250 mM): 7 ppm
- peracetic acid (ppm), 5 min ([7]; pH 6.5, triacetin 250 mM): 323 ppm
- peracetic acid (ppm), 30 min ([7]; pH 6.5, triacetin 250 mM): 669 ppm

B3: Alcalase ®: Novozymes; subtilisin Carlsberg or subtilisin A from Bacillus licheniformis (protein, UniProt P00780 106-379, looked up)
Subtilisin Carlsberg: AQTVPYGIPLIKADKVQAQGFKGANVKVAVLDTGIQASHPDLNVVGGASFVAGEAYNTDGNGHGTHVAGTVAALDNTTGVLGVAPSVSLYAVKVLNSSGSGSYSGIVSGIEWATTNGMDVINMSLGGASGSTAMKQAVDNAYAKGVVVVAAAGNSGSSGNTNTIGYPAKYDSVIAVGAVDSNSNRASFSSVGAELEVMAPGAGVYSTYPTNTYATLNGTSMASPHVAGAAALILSKHPNLSASQVRNRLSSTATYLGSSFYYGKGLINVEAAAQ
- peracetic acid (ppm), 5 min ([8]; pH 4.0, triacetin 250 mM): 0 ppm
- peracetic acid (ppm), 30 min ([8]; pH 4.0, triacetin 250 mM): 0 ppm
- peracetic acid (ppm), 5 min ([8]; pH 6.5, triacetin 250 mM): 180 ppm
- peracetic acid (ppm), 30 min ([8]; pH 6.5, triacetin 250 mM): 330 ppm
- peracetic acid (ppm), 5 min ([9]; pH 4.0, H2O2 500 mM): 0 ppm
- peracetic acid (ppm), 30 min ([9]; pH 4.0, H2O2 500 mM): 20 ppm
- peracetic acid (ppm), 5 min ([9]; pH 6.5, H2O2 500 mM): 110 ppm
- peracetic acid (ppm), 30 min ([9]; pH 6.5, H2O2 500 mM): 210 ppm
